This test addresses VEGF receptor Flk-1 on rat neural stem cells (rat) (UniProt O08775). Description: cell-based or functional assay.

Sequence of VEGF receptor Flk-1 on rat neural stem cells (rat) (O08775 20-1343): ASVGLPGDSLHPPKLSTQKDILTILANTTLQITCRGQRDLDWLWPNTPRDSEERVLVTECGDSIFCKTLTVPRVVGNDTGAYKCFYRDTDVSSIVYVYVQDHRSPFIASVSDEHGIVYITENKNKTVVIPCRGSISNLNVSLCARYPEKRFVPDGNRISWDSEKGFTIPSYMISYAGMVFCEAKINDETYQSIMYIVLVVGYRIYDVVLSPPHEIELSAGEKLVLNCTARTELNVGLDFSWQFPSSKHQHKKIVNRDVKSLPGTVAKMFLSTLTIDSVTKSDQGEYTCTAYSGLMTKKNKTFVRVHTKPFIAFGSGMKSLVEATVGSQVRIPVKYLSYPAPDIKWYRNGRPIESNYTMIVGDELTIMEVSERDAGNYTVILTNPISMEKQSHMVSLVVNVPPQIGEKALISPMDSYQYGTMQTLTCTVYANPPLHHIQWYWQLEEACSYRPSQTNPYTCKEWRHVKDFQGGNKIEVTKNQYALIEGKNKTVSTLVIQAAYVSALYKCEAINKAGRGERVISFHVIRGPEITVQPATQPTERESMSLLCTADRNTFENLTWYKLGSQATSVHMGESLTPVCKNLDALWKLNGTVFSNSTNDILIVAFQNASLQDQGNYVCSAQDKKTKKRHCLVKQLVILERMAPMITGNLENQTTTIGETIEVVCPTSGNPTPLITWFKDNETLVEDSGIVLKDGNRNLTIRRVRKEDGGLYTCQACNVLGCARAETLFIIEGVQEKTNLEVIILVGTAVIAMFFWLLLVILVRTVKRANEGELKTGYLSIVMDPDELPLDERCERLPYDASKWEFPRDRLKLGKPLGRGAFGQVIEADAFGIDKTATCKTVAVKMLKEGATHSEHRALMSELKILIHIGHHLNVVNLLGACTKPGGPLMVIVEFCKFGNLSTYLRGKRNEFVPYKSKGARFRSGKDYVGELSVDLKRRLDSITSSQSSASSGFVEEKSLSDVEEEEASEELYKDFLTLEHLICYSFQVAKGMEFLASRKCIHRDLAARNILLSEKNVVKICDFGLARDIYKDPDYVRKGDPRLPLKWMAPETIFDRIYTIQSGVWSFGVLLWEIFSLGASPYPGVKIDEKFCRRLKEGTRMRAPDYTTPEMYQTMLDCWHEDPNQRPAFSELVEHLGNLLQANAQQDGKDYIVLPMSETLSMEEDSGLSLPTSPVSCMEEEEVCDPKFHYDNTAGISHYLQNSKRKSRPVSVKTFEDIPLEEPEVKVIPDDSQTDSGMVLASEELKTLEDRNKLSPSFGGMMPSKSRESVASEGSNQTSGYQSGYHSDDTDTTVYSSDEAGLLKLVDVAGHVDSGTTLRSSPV

The substance “mouse recombinant VEGF164 (from UniProt Q00731 27-190) (ligand)” came in with an ED50 of expansion of neural stem cell cultures (cell number after 7 days) of 10 ng/mL and a concentration of maximal stimulation of neural stem cell expansion of 50 ng/mL.
